The source of these data is article PMC10627809, “Histones with an unconventional DNA-binding mode in vitro are major chromatin constituents in the bacterium Bdellovibrio bacteriovorus” (Nature Microbiology, 2023).

Data set [1] deals with the molecule itself. The experiment in a line: crystal structure; apo Bd0055; hanging drop, 3.2 M (NH4)2SO4, 100 mM BICINE pH 9; 1.8 Å.
Data set [2] deals with T1, Bd0055 (UniProt Q6MRM1 1-64).
T1 sequence: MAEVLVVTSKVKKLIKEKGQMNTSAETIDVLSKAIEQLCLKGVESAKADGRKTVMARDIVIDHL
Kind of data set: X-ray crystallography; 1 dimer per 2.5 bp; straight DNA; asymmetric unit has one dimer with 2 nt + 3 nt; FP/FRET: 10 nM DNA, 10 mM NaCl, 1 mM EDTA, 50 mM HEPES pH 6, r.t.; EMSA: 1 µM DNA, 10 mM NaCl, 1 mM EDTA, 50 mM HEPES pH 7.5, r.t., 10% native PAGE 0.2x TBE. Particulars: protein: recombinant; chain copies: 2; blunt.

B1: Bd0055, B. bacteriovorus histone (natural protein, Bdellovibrio bacteriovorus HD100, UniProt Q6MRM1 1-64, looked up)
chain: T1 sequence
notes: Bd0055, singlet histone-fold protein of Bdellovibrio bacteriovorus HD100; open reading frame codon optimized for E. coli, cloned into a pET vector; No tag is named; purified by cation exchange, heparin and size exclusion; Histone-fold homodimer in both crystal structures; also called wild type Bd0055; bacterial histone Bd0055; source: E. coli, purified (SP HP, Heparin HP, S75)
B1: the binding result in data set [1] is recorded as “binds”.

B2: 35 bp crystallization DNA (dsDNA)
DNA 1: TCTTGCACTAAGAGCTACTGGAGTGCGTCAGATGT
DNA 2: ACATCTGACGCACTCCAGTAGCTCTTAGTGCAAGA
B2: in data set [2], the binding result is “binds”.
